Consider 4 sequences from the supplement of paper PMC5998384.

The test system of data set [1] is HeLa Kyoto. In words: thermal stability score vs G1/S (z-score of summed log2 fold changes over temperatures); higher = more thermally stable than in G1/S.
The subject of data set [2] is HeLa Kyoto. Put plainly: solubility change mitosis vs G1/S (difference of NP-40 vs SDS log2 ratios) (log2 ratio difference); higher = more soluble in mitosis.
In data set [3] the test system is HeLa Kyoto. Put plainly: solubility in G1/S (NP-40 vs SDS abundance) (log2 ratio); higher = more soluble. The settings on record: cell cycle stage: G1/S.
The subject of data set [4] is HeLa Kyoto. In words: melting temperature (median over replicates), in situ; higher = more thermally stable.
The mark [5] stands for this setting: cell cycle stage: early G1 (4.5 h after nocodazole release).
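Throughout, for melting temperature (median over replicates), in situ: HeLa Kyoto cells synchronized by double thymidine or nocodazole block, proteins quantified by TMT10plex mass spectrometry, three independent biological replicates.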
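Throughout, for solubility change mitosis vs G1/S (difference of NP-40 vs SDS log2 ratios): synchronized HeLa Kyoto cells (double thymidine block for G1/S, nocodazole release for mitosis), protein amounts in NP-40 versus SDS lysates quantified by mass spectrometry, three biological replicates.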
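Throughout, for solubility in G1/S (NP-40 vs SDS abundance): HeLa Kyoto cells arrested at G1/S by double thymidine block, proteins quantified by TMT10plex mass spectrometry in mild NP-40 versus SDS extracts, three biological replicates.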
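Throughout, for thermal stability score vs G1/S (z-score of summed log2 fold changes over temperatures): synchronized HeLa Kyoto cells, proteins quantified by TMT10plex mass spectrometry, three biological replicates, mitosis taken 0.5 h after nocodazole release, G1/S directly after double thymidine block.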

For the sequence “MAPLDLDKYVEIARLCKYLPENDLKRLCDYVCDLLLEESNVQPVSTPVTVCGDIHGQFYDLCELFRTGGQVPDTNYIFMGDFVDRGYYSLETFTYLLALKAKWPDRITLLRGNHESRQITQVYGFYDECQTKYGNANAWRYCTKVFDMLTVAALIDEQILCVHGGLSPDIKTLDQIRTIERNQEIPHKGAFCDLVWSDPEDVDTWAISPRGAGWLFGAKVTNEFVHINNLKLICRAHQLVHEGYKFMFDEKLVTVWSAPNYCYRCGNIASIMVFKDVNTREPKLFRAVPDSERVIPPRTTTPYFL [PPP6C]”, the thermal stability score in the data set with HeLa Kyoto [1] (setting [5]) is -1.68; in the data set with HeLa Kyoto [1] (cell cycle stage: mitosis), -2.31. Moreover, the “solubility change mitosis (log2)” value with HeLa Kyoto [2] was -0.154. The “solubility in G1/S (log2)” value in the data set with HeLa Kyoto [3] is -0.00442. Further, the melting temperature is 53.7 °C with HeLa Kyoto [4] (cell cycle stage: G1/S) and 54.1 °C with HeLa Kyoto [4] (cell cycle stage: mitosis).

As for “MAPLLGRKPFPLVKPLPGEEPLFTIPHTQEAFRTREEYEARLERYSERIWTCKSTGSSQLTHKEAWEEEQEVAELLKEEFPAWYEKLVLEMVHHNTASLEKLVDTAWLEIMTKYAVGEECDFEVGKEKMLKVKIVKIHPLEKVDEEATEKKSDGACDSPSSDKENSSQIAQDHQKKETVVKEDEGRRESINDRARRSPRKLPTSLKKGERKWAPPKFLPHKYDVKLQNEDKIISNVPADSLIRTERPPNKEIVRYFIRHNALRAGTGENAPWVVEDELVKKYSLPSKFSDFLLDPYKYMTLNPSTKRKNTGSPDRKPSKKSKTDNSSLSSPLNPKLWCHVHLKKSLSGSPLKVKNSKNSKSPEEHLEEMMKMMSPNKLHTNFHIPKKGPPAKKPGKHSDKPLKAKGRSKGILNGQKSTGNSKSPKKGLKTPKTKMKQMTLLDMAKGTQKMTRAPRNSGGTPRTSSKPHKHLPPAALHLIAYYKENKDREDKRSALSCVISKTARLLSSEDRARLPEELRSLVQKRYELLEHKKRWASMSEEQRKEYLKKKREELKKKLKEKAKERREKEMLERLEKQKRYEDQELTGKNLPAFRLVDTPEGLPNTLFGDVAMVVEFLSCYSGLLLPDAQYPITAVSLMEALSADKGGFLYLNRVLVILLQTLLQDEIAEDYGELGMKLSEIPLTLHSVSELVRLCLRRSDVQEESEGSDTDDNKDSAAFEDNEVQDEFLEKLETSEFFELTSEEKLQILTALCHRILMTYSVQDHMETRQQMSAELWKERLAVLKEENDKKRAEKQKRKEMEAKNKENGKVENGLGKTDRKKEIVKFEPQVDTEAEDMISAVKSRRLLAIQAKKEREIQEREMKVKLERQAEEERIRKHKAAAEKAFQEGIAKAKLVMRRTPIGTDRNHNRYWLFSDEVPGLFIEKGWVHDSIDYRFNHHCKDHTVSGDEDYCPRSKKANLGKNASMNTQHGTATEVAVETTTPKQGQNLWFLCDSQKELDELLNCLHPQGIRESQLKERLEKRYQDIIHSIHLARKPNLGLKSCDGNQELLNFLRSDLIEVATRLQKGGLGYVEETSEFEARVISLEKLKDFGECVIALQASVIKKFLQGFMAPKQKRRKLQSEDSAKTEEVDEEKKMVEEAKVASALEKWKTAIREAQTFSRMHVLLGMLDACIKWDMSAENARCKVCRKKGEDDKLILCDECNKAFHLFCLRPALYEVPDGEWQCPACQPATARRNSRGRNYTEESASEDSEDDESDEEEEEEEEEEEEEDYEVAGLRLRPRKTIRGKHSVIPPAARSGRRPGKKPHSTRRSQPKAPPVDDAEVDELVLQTKRSSRRQSLELQKCEEILHKIVKYRFSWPFREPVTRDEAEDYYDVITHPMDFQTVQNKCSCGSYRSVQEFLTDMKQVFTNAEVYNCRGSHVLSCMVKTEQCLVALLHKHLPGHPYVRRKRKKFPDRLAEDEGDSEPEAVGQSRGRRQKK [BAZ1B]”, the figures for the thermal stability score in the data set with HeLa Kyoto [1] (setting [5]) and with HeLa Kyoto [1] (cell cycle stage: mitosis) were 1.09 and -0.274, respectively. In the data set on HeLa Kyoto [2], the “solubility change mitosis (log2)” value came to 1.24. In addition, the “solubility in G1/S (log2)” value with HeLa Kyoto [3] is -2.14. In addition, the melting temperature was 50.7 °C in the data set on HeLa Kyoto [4] (cell cycle stage: G1/S) and 51 °C with HeLa Kyoto [4] (cell cycle stage: mitosis).

With “MAPPSTREPRVLSATSATKSDGEMVLPGFPDADSFVKFALGSVVAVTKASGGLPQFGDEYDFYRSFPGFQAFCETQGDRLLQCMSRVMQYHGCRSNIKDRSKVTELEDKFDLLVDANDVILERVGILLDEASGVNKNQQPVLPAGLQVPKTVVSSWNRKAAEYGKKAKSETFRLLHAKNIIRPQLKFREKIDNSNTPFLPKIFIKPNAQKPLPQALSKERRERPQDRPEDLDVPPALADFIHQQRTQQVEQDMFAHPYQYELNHFTPADAVLQKPQPQLYRPIEETPCHFISSLDELVELNEKLLNCQEFAVDLEHHSYRSFLGLTCLMQISTRTEDFIIDTLELRSDMYILNESLTDPAIVKVFHGADSDIEWLQKDFGLYVVNMFDTHQAARLLNLGRHSLDHLLKLYCNVDSNKQYQLADWRIRPLPEEMLSYARDDTHYLLYIYDKMRLEMWERGNGQPVQLQVVWQRSRDICLKKFIKPIFTDESYLELYRKQKKHLNTQQLTAFQLLFAWRDKTARREDESYGYVLPNHMMLKIAEELPKEPQGIIACCNPVPPLVRQQINEMHLLIQQAREMPLLKSEVAAGVKKSGPLPSAERLENVLFGPHDCSHAPPDGYPIIPTSGSVPVQKQASLFPDEKEDNLLGTTCLIATAVITLFNEPSAEDSKKGPLTVAQKKAQNIMESFENPFRMFLPSLGHRAPVSQAAKFDPSTKIYEISNRWKLAQVQVQKDSKEAVKKKAAEQTAAREQAKEACKAAAEQAISVRQQVVLENAAKKRERATSDPRTTEQKQEKKRLKISKKPKDPEPPEKEFTPYDYSQSDFKAFAGNSKSKVSSQFDPNKQTPSGKKCIAAKKIKQSVGNKSMSFPTGKSDRGFRYNWPQR [EXOSC10]”, the thermal stability score is 4.13 in the data set with HeLa Kyoto [1] (setting [5]) and 7.46 with HeLa Kyoto [1] (cell cycle stage: mitosis). The “solubility change mitosis (log2)” value with HeLa Kyoto [2] turned out to be 0.289. For the same sequence, the “solubility in G1/S (log2)” value with HeLa Kyoto [3] is -0.517. Moreover, the results for the melting temperature in the data set with HeLa Kyoto [4] (cell cycle stage: G1/S) and in the data set on HeLa Kyoto [4] (cell cycle stage: mitosis) were 46.6 °C and 48.7 °C, respectively.

On to “MAPPVAERGLKSVVWQKIKATVFDDCKKEGEWKIMLLDEFTTKLLASCCKMTDLLEEGITVVENIYKNREPVRQMKALYFITPTSKSVDCFLHDFASKSENKYKAAYIYFTDFCPDNLFNKIKASCSKSIRRCKEINISFIPHESQVYTLDVPDAFYYCYSPDPGNAKGKDAIMETMADQIVTVCATLDENPGVRYKSKPLDNASKLAQLVEKKLEDYYKIDEKSLIKGKTHSQLLIIDRGFDPVSTVLHELTFQAMAYDLLPIENDTYKYKTDGKEKEAILEEEDDLWVRIRHRHIAVVLEEIPKLMKEISSTKKATEGKTSLSALTQLMKKMPHFRKQITKQVVHLNLAEDCMNKFKLNIEKLCKTEQDLALGTDAEGQKVKDSMRVLLPVLLNKNHDNCDKIRAILLYIFSINGTTEENLDRLIQNVKIENESDMIRNWSYLGVPIVPQSQQGKPLRKDRSAEETFQLSRWTPFIKDIMEDAIDNRLDSKEWPYCSQCPAVWNGSGAVSARQKPRANYLEDRKNGSKLIVFVIGGITYSEVRCAYEVSQAHKSCEVIIGSTHVLTPKKLLDDIKMLNKPKDKVSLIKDE [STXBP3]”, for which the thermal stability score with HeLa Kyoto [1] (setting [5]) was -0.14; in the data set on HeLa Kyoto [1] (cell cycle stage: mitosis), 0.708. Besides, in the data set with HeLa Kyoto [2], the “solubility change mitosis (log2)” value was -0.0474. In the data set with HeLa Kyoto [3], the “solubility in G1/S (log2)” value is -0.0906. The melting temperature in the data set on HeLa Kyoto [4] (cell cycle stage: G1/S) and with HeLa Kyoto [4] (cell cycle stage: mitosis) was 49 °C each time.
